The source of these data is PMC6056538.

Experiment [1] concerns the target T1 with SpyTag, flanked by six residue glycine-serine linkers, inserted on the lumenal side (Haliangium ochraceum | not stated). Put plainly: fluorescence intensity of purified shells; number of cfp cargo proteins per shell calculated from fluorescence intensity values of shells loaded in vivo and purified by CAP and anion exchange.
Experiment [2] concerns the target T1 with SpyCatcher, flanked by six residue glycine-serine linkers, inserted on the lumenal side (Haliangium ochraceum | not stated). The experiment is described as above.

Consider “SpyCatcher-mTurquoise2-6xHis (SpyCatcher-fused cyan fluorescent protein cargo)”, for which the cfp cargo copies per shell (copies per shell) in experiment [1] is 58.
With “SpyTag-mTurquoise2-6xHis (SpyTagged cyan fluorescent protein cargo)”, the cfp cargo copies per shell (copies per shell) in experiment [2] is 73.
